“And” between values parts separate entries of the source, which are not always exact repeats. Identical values can stand only once.
Tests used:
[1] = biological target: Schizosaccharomyces pombe ribosome (S. pombe); assay: co-sedimentation; NatA constant at 0.5 μM, ribosome 0.1–11 μM, 30% sucrose cushion; anti-His western blot of Naa15, proportion in the pellet quantified; fit assumes 1:1
[2] = biological target: Schizosaccharomyces pombe ribosome (S. pombe); assay: co-sedimentation; ribosome 1 μM and NatA 1.2 μM layered on Buffer G with 30% sucrose, ultracentrifuged; pellet and supernatant on SDS-PAGE

Substance “NatA K9E (Naa15 K27E, K28E, K31E, K605E, K606E, K609E, K610E, K612E, K613E with Naa10) (complex)” has a percent pulldown (highest reached at the ribosome concentrations used) [1] of under 30%.
In the case of “NatA (wild type; Naa15-Naa10 complex of Schizosaccharomyces pombe)”, the Kd [1] is reported as 1100 nM and the stoichiometry N [2] is reported as 1.13 and 1.28.

— paper PMC5634638
